Results taken from US20150218277A1.
Ends that are not written are not given here.

Key:
[1] = biological target: HSP90 endogenous to CHO cells (Hamster), P46633; experiment: cell-based or functional assay
[2] = biological target: T1, Heat Shock Protein 90 (HSP90), endogenous, in human cell lines (human), P07900; experiment: cell-based or functional assay
[3] = biological target: T1, Heat Shock Protein 90 (HSP90), …; experiment: streptavidin affinity purification of biotinylated peptide from lysates of cancer cells (UMSCC1, H1975), immunoblot for HSP90

HSP90 endogenous to CHO cells (Hamster), P46633, sequence (P46633 whole entry): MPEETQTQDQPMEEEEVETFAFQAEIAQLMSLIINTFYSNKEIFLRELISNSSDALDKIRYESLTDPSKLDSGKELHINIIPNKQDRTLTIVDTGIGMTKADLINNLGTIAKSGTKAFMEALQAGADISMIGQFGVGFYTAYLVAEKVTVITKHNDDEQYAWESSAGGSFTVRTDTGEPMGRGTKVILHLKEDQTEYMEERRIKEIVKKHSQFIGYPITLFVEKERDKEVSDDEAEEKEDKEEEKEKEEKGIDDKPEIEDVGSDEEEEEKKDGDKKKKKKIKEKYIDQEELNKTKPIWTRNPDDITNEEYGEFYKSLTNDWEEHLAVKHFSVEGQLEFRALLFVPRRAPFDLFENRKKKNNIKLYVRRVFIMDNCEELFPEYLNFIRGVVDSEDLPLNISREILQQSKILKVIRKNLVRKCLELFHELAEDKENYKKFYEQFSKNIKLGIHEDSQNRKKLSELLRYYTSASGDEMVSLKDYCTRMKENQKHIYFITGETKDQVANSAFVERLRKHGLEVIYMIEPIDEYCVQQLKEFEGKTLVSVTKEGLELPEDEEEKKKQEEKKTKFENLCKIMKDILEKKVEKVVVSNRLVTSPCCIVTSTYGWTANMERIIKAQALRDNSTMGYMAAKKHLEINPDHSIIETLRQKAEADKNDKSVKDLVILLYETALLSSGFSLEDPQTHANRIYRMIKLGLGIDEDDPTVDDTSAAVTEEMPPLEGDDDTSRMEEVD

Binder | clonogenic survival, CHO cells (EGFR negative) (surviving fraction) [1] | clonogenic survival, A549 cells (WT-EGFR) (surviving fraction) [2] | clonogenic survival, H1975 cells (T790M-EGFR) (surviving fraction) [2] | clonogenic survival, H3255 cells (L858R-EGFR) (surviving fraction) [2] | clonogenic survival, HeLa cells (WT-EGFR) (surviving fraction) [2] | clonogenic survival, Het1A normal epithelial cells (WT-EGFR) (surviving fraction) [2] | clonogenic survival, MRC5 normal fibroblasts (WT-EGFR) (surviving fraction) [2] | clonogenic survival, UMSCC1 cells (WT-EGFR) (surviving fraction) [2] | clonogenic survival, UMSCC10B cells (WT-EGFR) (surviving fraction) [2] | clonogenic survival, UMSCC74B cells (WT-EGFR) (surviving fraction) [2] | fold increase in HSP90 protein binding [3] [fold]
YGRKKRRQRRRSVDNPHVC (not fully specified (N-terminus)) [Specific Peptide Biotin-[…]-SVDNPHVC] | 0.98 | 0.57 | 0.4 | 0.71 | 0.72 | 1.02 | 1.01 | 0.76 | 0.63 | 0.74 | 5 to 10
YGRKKRRQRRRNHVPSDVC (not fully specified (N-terminus)) [Non Specific Peptide Biotin-[…]-NHVPSDVC] | 1.12 | 0.81 | 0.77 | 1 | 0.92 | 0.91 | 1.04 | 1.02 | 0.96 | 0.89 | –
